Measurements taken from paper PMC11352577.
pKd: −log10 of the molar value.

Assays:
[1] = target: CD64 (FcγRI) on human primary monocytes and monocyte-derived macrophages (human (endogenous in primary monocytes)) (UniProt P12314)
[2] = target: human KIR3DL1 extracellular domains fused to mouse IgG2a Fc with Avi tag, biotinylated (human) (UniProt P43629); assay: SPR; Biacore T200; biotinylated KIR3DL1 immobilised; IOS-1002 as analyte; HBS-EP, 25 °C; steady-state fits, averaged
[3] = target: human KIR3DL1 extracellular domains fused to mouse IgG2a Fc with Avi tag, biotinylated (human) (UniProt P43629); assay: SPR; Biacore T200; biotinylated receptors immobilised on Series S CAP chip; IOS-1002 as analyte, 5 concentrations 6 to 0.375 uM; HBS-EP, 25 °C; 1:1 fit

Chain of UniProt P43629 (P43629 22-340): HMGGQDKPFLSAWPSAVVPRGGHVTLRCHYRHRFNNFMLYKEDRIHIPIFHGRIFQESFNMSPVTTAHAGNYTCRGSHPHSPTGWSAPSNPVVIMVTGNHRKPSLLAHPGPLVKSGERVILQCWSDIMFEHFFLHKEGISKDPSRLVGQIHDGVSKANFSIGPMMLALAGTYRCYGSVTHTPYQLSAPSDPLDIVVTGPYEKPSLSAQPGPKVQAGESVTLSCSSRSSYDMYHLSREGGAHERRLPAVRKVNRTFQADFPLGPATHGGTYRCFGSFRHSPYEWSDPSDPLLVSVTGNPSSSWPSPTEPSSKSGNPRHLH
Chain of UniProt P12314 (P12314 16-374): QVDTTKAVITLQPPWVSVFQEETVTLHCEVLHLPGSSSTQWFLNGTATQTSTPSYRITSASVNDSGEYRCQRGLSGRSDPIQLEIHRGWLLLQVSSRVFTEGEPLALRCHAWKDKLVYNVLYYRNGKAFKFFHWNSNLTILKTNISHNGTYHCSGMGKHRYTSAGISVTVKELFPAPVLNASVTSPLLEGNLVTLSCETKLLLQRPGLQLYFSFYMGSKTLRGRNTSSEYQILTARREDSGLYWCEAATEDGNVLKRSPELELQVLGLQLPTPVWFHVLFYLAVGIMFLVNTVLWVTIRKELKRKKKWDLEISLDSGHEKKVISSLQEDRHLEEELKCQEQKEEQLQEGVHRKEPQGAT

macrophage phagocytosis of H460 cells, dose response (EC50) [1]: 0.00333 µM | pKd [2]: 5.13 | pKd [3]: 5.48
Substance: IOS-1002 (HLA-B57^(A46E/V97R).B2m-IgG4_Fc) (from UniProt P61769 21-119) (Fc fusion)
